Values belong to the sequence of their own block, whether it stands above or below them.
Experiments:
[1] = molecular target: HLA-A*02:01; experiment: IEDB peptide-MHC binding, purified MHC/competitive/fluorescence; filed as Kd, often an IC50 or EC50 that approximates it; ≥ and ≤ were set here for values at or beyond the usual limits of such assays
[2] = molecular target: HLA-B*40:01; experiment: IEDB peptide-MHC binding, purified MHC/competitive/radioactivity; filed as Kd, often an IC50 or EC50 that approximates it; ≥ and ≤ were set here for values at or beyond the usual limits of such assays
[3] = molecular target: HLA-B*45:01; experiment: as above
[4] = molecular target: HLA-B*18:01; experiment: as above
[5] = molecular target: HLA-B*44:02; experiment: as above
[6] = molecular target: HLA-B*44:03; experiment: as above
[7] = molecular target: HLA-B*40:02; experiment: as above
[8] = molecular target: HLA-B*08:01; experiment: as above
[9] = molecular target: HLA-B*15:01; experiment: as above
[10] = molecular target: HLA-A*02:06; experiment: as above
[11] = molecular target: HLA-A*02:01; experiment: as above
[12] = molecular target: HLA-A*02:02; experiment: as above
[13] = molecular target: HLA-A*02:03; experiment: as above
[14] = molecular target: HLA-A*68:02; experiment: as above
[15] = molecular target: HLA-B*15:01; experiment: IEDB peptide-MHC binding, purified MHC/competitive/fluorescence; filed as Kd, often an IC50 or EC50 that approximates it; ≥ and ≤ were set here for values at or beyond the usual limits of such assays
[16] = molecular target: HLA-A*32:01; experiment: IEDB peptide-MHC binding, purified MHC/competitive/radioactivity; filed as Kd, often an IC50 or EC50 that approximates it; ≥ and ≤ were set here for values at or beyond the usual limits of such assays
[17] = molecular target: HLA-A*01:01; experiment: as above; settings: source organism: Dengue virus 2 Jamaica/1409/1983
[18] = molecular target: HLA-A*24:02; experiment: as above; settings: source organism: Dengue virus 1 Brazil/97-11/1997
[19] = molecular target: HLA-A*23:01; experiment: as above; settings: source organism: Dengue virus 1 Brazil/97-11/1997
[20] = molecular target: HLA-A*26:01; experiment: IEDB peptide-MHC binding, purified MHC/competitive/fluorescence; filed as Kd, often an IC50 or EC50 that approximates it; ≥ and ≤ were set here for values at or beyond the usual limits of such assays
[21] = source organism: Lassa virus Josiah
[22] = source organism: SARS coronavirus Tor2
[23] = source organism: Vaccinia virus WR
[24] = source organism: Lymphocytic choriomeningitis virus (strain Armstrong)
[25] = source organism: Mammarenavirus machupoense
[26] = source organism: Dengue virus 3 Martinique/1243/1999
[27] = source organism: Dengue virus 2 Jamaica/1409/1983
[28] = source organism: Dengue virus 4 Philippines/H241/1956
[29] = source organism: Mammarenavirus juninense
[30] = source organism: Mammarenavirus lassaense
[31] = source organism: Trypanosoma cruzi

Sequence: GILKSILKV
Kd [1, 21]: 39.1 nM

Sequence: NDFVSDADST
Kd [2, 22]: ≥ 69600 nM
Kd [3, 22]: 2600 nM
Kd [4, 22]: ≥ 70500 nM
Kd [5, 22]: ≥ 32700 nM
Kd [6, 22]: ≥ 70100 nM
Kd [7, 22]: ≥ 70800 nM

Sequence: MVHIYFVSL
Kd [8, 23]: 1.35 nM
Kd [9, 23]: 5460 nM

Sequence: FENAILSMTI
Kd [2, 24]: 1450 nM
Kd [3, 24]: 3020 nM
Kd [4, 24]: 126 nM
Kd [5, 24]: 237 nM
Kd [6, 24]: 388 nM
Kd [7, 24]: 6.31 nM

Sequence: MMKTYIEFV
Kd [9, 23]: 170 nM

Sequence: PENQEDPLVL
Kd [2, 25]: ≥ 39500 nM
Kd [3, 25]: ≥ 70000 nM
Kd [4, 25]: ≥ 70400 nM
Kd [5, 25]: ≥ 70200 nM
Kd [6, 25]: ≥ 70100 nM
Kd [7, 25]: ≥ 70800 nM

Sequence: NSKNTSMSF
Kd [9, 26]: 526 nM

Kd ([10]; source organism: Homo sapiens): ≥ 68500 nM
Kd ([11]; source organism: Homo sapiens): ≥ 63100 nM
Kd ([12]; source organism: Homo sapiens): 4230 nM
Kd ([13]; source organism: Homo sapiens): 11900 nM
Kd ([14]; source organism: Homo sapiens): ≥ 65200 nM
Sequence: PLESDAVECL

Sequence: GLSRPLLRL
Kd ([11]; source organism: Hepatitis B virus subtype ayw): ≥ 5000 nM

Sequence: IVIGVGNSAL
Kd ([9]; source organism: Dengue virus 4 Dominica/814669/1981): 52.9 nM

Sequence: NEKVAGFAKF
Kd [2, 22]: ≥ 53700 nM
Kd [3, 22]: 18800 nM
Kd [4, 22]: 1560 nM
Kd [5, 22]: 37.9 nM
Kd [6, 22]: 527 nM
Kd [7, 22]: ≥ 70800 nM

Sequence: ILRHSTAHL
Kd ([15]; source organism: Bacillus anthracis str. A0488): 142 nM

Sequence: LGLNKIVRMY
Kd ([15]; source organism: Human immunodeficiency virus 1): 1960 nM

Sequence: CELYHYQECV
Kd [2, 22]: 1720 nM
Kd [3, 22]: 425 nM
Kd [4, 22]: ≥ 36200 nM
Kd [5, 22]: 7850 nM
Kd [6, 22]: 4200 nM
Kd [7, 22]: 8200 nM

Sequence: MELPTGVHA
Kd [2, 22]: ≥ 24900 nM
Kd [3, 22]: 78.9 nM
Kd [4, 22]: 18000 nM
Kd [5, 22]: 7800 nM
Kd [6, 22]: 13800 nM
Kd [7, 22]: 2740 nM

Sequence: TVLEKNVTV
Kd ([1]; source organism: Influenza A virus (A/Harbin/1/1988(H1N2))): 5.8 nM

Sequence: FENAILSMT
Kd [2, 24]: 18400 nM
Kd [3, 24]: 1820 nM
Kd [4, 24]: 3300 nM
Kd [5, 24]: 6480 nM
Kd [6, 24]: 6370 nM
Kd [7, 24]: 32.3 nM

Sequence: FQRALIFILL
Kd [9, 27]: 117 nM

Sequence: QIHLAIMAVF
Kd [9, 28]: 17 nM

Sequence: KLHSGVDVF
Kd [9, 28]: 7.72 nM

Sequence: GDYFVLTSHT
Kd [2, 22]: ≥ 69600 nM
Kd [3, 22]: ≥ 70000 nM
Kd [4, 22]: ≥ 70500 nM
Kd [5, 22]: ≥ 50900 nM
Kd [6, 22]: ≥ 22600 nM
Kd [7, 22]: ≥ 37700 nM

Sequence: MSIDHCSSF
Kd [9, 23]: 0.952 nM

Sequence: SELRPDTRY
Kd [2, 22]: 11300 nM
Kd [3, 22]: 1650 nM
Kd [4, 22]: 11200 nM
Kd [5, 22]: 520 nM
Kd [6, 22]: 714 nM
Kd [7, 22]: 3140 nM

Sequence: LTFDYVVTF
Kd [16, 23]: 17.2 nM
Kd [9, 23]: 2.45 nM

Sequence: LLWFLTGTF
Kd [16, 23]: 93 nM
Kd [9, 23]: 0.776 nM

Sequence: QALTDLGLI
Kd ([11]; source organism: Lassa virus GA391): 3570 nM

Sequence: SDQKFVDVI
Kd [2, 29]: ≥ 70700 nM
Kd [3, 29]: 16700 nM
Kd [4, 29]: ≥ 26300 nM
Kd [5, 29]: ≥ 25400 nM
Kd [6, 29]: ≥ 78100 nM
Kd [7, 29]: 4430 nM

Sequence: NAHKLILSG
Kd [9, 23]: 18100 nM

Sequence: RECYAQRFYL
Kd [2, 25]: 9580 nM
Kd [3, 25]: 1440 nM
Kd [4, 25]: 137 nM
Kd [5, 25]: 525 nM
Kd [6, 25]: 250 nM
Kd [7, 25]: 5.55 nM

Sequence: QMSSGNLLF
Kd [17]: 4390 nM
Kd [9, 27]: 6.83 nM

Sequence: EELIKLRFWF
Kd [2, 29]: ≥ 36700 nM
Kd [3, 29]: 9880 nM
Kd [4, 29]: 748 nM
Kd [5, 29]: 680 nM
Kd [6, 29]: 132 nM
Kd [7, 29]: 10400 nM

Sequence: SEFSSLPSYA
Kd [2, 22]: 431 nM
Kd [3, 22]: 25.3 nM
Kd [4, 22]: 1060 nM
Kd [5, 22]: 343 nM
Kd [6, 22]: 13.1 nM
Kd [7, 22]: 22.4 nM

Kd ([10]; source organism: Homo sapiens): ≥ 64600 nM
Kd ([11]; source organism: Homo sapiens): ≥ 54300 nM
Kd ([14]; source organism: Homo sapiens): 15900 nM
Sequence: ELEALKTEL

Kd ([15]; source organism: Chloroflexus aurantiacus J-10-fl): ≥ 20000 nM
Sequence: AVDLSHFL

Sequence: LLLSINSSF
Kd ([16]; source organism: Variola virus): 2090 nM
Kd ([9]; source organism: Variola virus): 0.883 nM

Sequence: MDGIQYGRSG
Kd [2, 22]: ≥ 69600 nM
Kd [3, 22]: 10900 nM
Kd [4, 22]: ≥ 70500 nM
Kd [5, 22]: ≥ 49900 nM
Kd [6, 22]: ≥ 58600 nM
Kd [7, 22]: ≥ 70800 nM

Sequence: LEVKFNAPA
Kd [2, 22]: 5310 nM
Kd [3, 22]: 4.46 nM
Kd [4, 22]: 111 nM
Kd [5, 22]: ≥ 21300 nM
Kd [6, 22]: 6010 nM
Kd [7, 22]: 9.33 nM

Sequence: SEAFLIGANY
Kd [2, 22]: ≥ 10000 nM
Kd [3, 22]: 578 nM
Kd [4, 22]: 4.42 nM
Kd [5, 22]: 8.47 nM
Kd [6, 22]: 3.75 nM
Kd [7, 22]: 348 nM

Sequence: AEAQMSIQLI
Kd [2, 21]: 1300 nM
Kd [3, 21]: 78.9 nM
Kd [4, 21]: ≥ 23500 nM
Kd [5, 21]: 34.6 nM
Kd [6, 21]: 69.1 nM
Kd [7, 21]: 53.9 nM

Sequence: QEADNMITEM
Kd [2, 24]: 5360 nM
Kd [3, 24]: 1190 nM
Kd [4, 24]: 1470 nM
Kd [5, 24]: 224 nM
Kd [6, 24]: 813 nM
Kd [7, 24]: 124 nM

Sequence: RIMAWTVVNSI
Kd ([1]; source organism: Influenza A virus (A/chicken/California/1002a/00(H6N2))): ≤ 1 nM

Sequence: MEVQSLAMST
Kd [2, 22]: 2060 nM
Kd [3, 22]: 259 nM
Kd [4, 22]: 969 nM
Kd [5, 22]: 7210 nM
Kd [6, 22]: 951 nM
Kd [7, 22]: ≥ 20100 nM

Sequence: IQNSGGTSI
Kd [9, 26]: 25.7 nM

Sequence: RIEDMFLTSV
Kd [10, 23]: 168 nM
Kd [11, 23]: 48 nM
Kd [12, 23]: 548 nM
Kd [13, 23]: 71 nM

Sequence: VMAFIAFLRF
Kd [18]: 901 nM
Kd ([9]; source organism: Dengue virus 1 Brazil/97-11/1997): 62.3 nM
Kd [19]: 846 nM

Sequence: LQWIASAIVL
Kd [8, 26]: 4970 nM
Kd [9, 26]: 6.43 nM

Sequence: EISSIISLM
Kd ([20]; source organism: Bacillus anthracis str. A2012): 9.8 nM

Kd ([11]; source organism: Homo sapiens): 1510 nM
Kd ([13]; source organism: Homo sapiens): 1580 nM
Kd ([14]; source organism: Homo sapiens): 1130 nM
Sequence: ELRLLIHQSL

Sequence: CEEGKLCYLT
Kd [2, 25]: ≥ 69500 nM
Kd [3, 25]: 1600 nM
Kd [4, 25]: 14100 nM
Kd [5, 25]: 13200 nM
Kd [6, 25]: 16200 nM
Kd [7, 25]: 8090 nM

Sequence: KENLYIKSI
Kd [2, 30]: 14200 nM
Kd [3, 30]: 2150 nM
Kd [4, 30]: ≥ 28800 nM
Kd [5, 30]: 232 nM
Kd [6, 30]: 118 nM
Kd [7, 30]: 19.1 nM

Sequence: FERDISNVPF
Kd [2, 22]: 20.3 nM
Kd [3, 22]: 6400 nM
Kd [4, 22]: 32 nM
Kd [5, 22]: 578 nM
Kd [6, 22]: 629 nM
Kd [7, 22]: 1950 nM

Sequence: KEKAPDVGVL
Kd [2, 25]: 1050 nM
Kd [3, 25]: ≥ 30900 nM
Kd [4, 25]: ≥ 70400 nM
Kd [5, 25]: 2410 nM
Kd [6, 25]: ≥ 62100 nM
Kd [7, 25]: 64.9 nM

Sequence: RSSMKLLSY
Kd ([15]; source organism: Yersinia pestis Nepal516): 88.6 nM

Sequence: EEVAIILASF
Kd [2, 22]: 3430 nM
Kd [3, 22]: 1390 nM
Kd [4, 22]: 108 nM
Kd [5, 22]: 77.6 nM
Kd [6, 22]: 19.2 nM
Kd [7, 22]: 406 nM

Sequence: EVLRPTTLV
Kd [10, 31]: 1460 nM
Kd [11, 31]: 13700 nM
Kd [12, 31]: 6570 nM
Kd [13, 31]: 5480 nM
Kd [14, 31]: 6.8 nM

Sequence: QNGALAINTF
Kd ([15]; source organism: Human herpesvirus 4 type 2): ≥ 20000 nM

Kd ([20]; source organism: Escherichia coli O139:H28 str. E24377A): ≥ 20000 nM
Sequence: DICSGLQQL

Sequence: LVQYRILPM
Kd [10, 23]: 4670 nM
Kd [9, 23]: 63.3 nM
Kd [12, 23]: 14800 nM
Kd [13, 23]: 1170 nM

From the Immune Epitope Database (IEDB)
